Measurements reported in PMC7136553.

Columns and labels:
[1] = molecular target: C3(x)1 from methylamine treated C3 (peak 2 of the MonoS cation exchange column) (human) (UniProt P01024)
[2] = molecular target: C3(x)2 from methylamine treated C3 (peak 3 of the MonoS cation exchange column) (human) (UniProt P01024)
[3] = molecular target: C3b (human) (UniProt P01024)

- FB remaining after addition of FD (Wes immunoassay with a mAb to Bb), 1-120 min at 37°C in VB++: practically all at 1 min, 85% at 5 min, 60% at 15 min, 30–40% at 60–120 min [1]: 85%
- FB remaining after addition of FD (Wes immunoassay with a mAb to Bb), 1-120 min at 37°C in VB++: all at 1–5 min, 90% at 15 min, 60% at 120 min [2]: 90%
- FB remaining after addition of FD (Wes immunoassay with a mAb to Bb), 1-120 min at 37°C in VB++: 90% at 1 min, ca. 60% at 5 min, 25% at 15 min, almost all consumed at 30 min [3]: 90%
Substance: Factor B (natural protein)
